Peptide exchange yield data for 53 molecules are collected here from patent US20190040115A1 (IMMATICS BIOTECHNOLOGIES, published 2019).

This experiment concerns the target T1, HLA-A*02:01 (human).
T1 construct: captured on streptavidin plates; also called peptide-receptive MHC molecules
Kind of experiment: UV peptide exchange ELISA (anti-b2m); yield grade: + >10%, ++ >20%, +++ >50, ++++ >75%. An outline of the steps:
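Peptide–HLA-A*02:01 complexes were generated by UV-ligand exchange, in which a UV-cleavable peptide is replaced by the test peptide. Exchange yield was quantified by ELISA on streptavidin-coated plates, detecting β2m of stabilized complexes with HRP anti-β2m (2 ug/ml) and TMB read at 450 nm.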
(In an ELISA, binding on a coated surface is turned into a signal by an enzyme label.)
As to FLAEAARSL, the peptide exchange yield is over 75%. Next, SIDDVVKKL: 20 to 50%. Under LLDALQHEL stands 50 to 75%; under ILPEAQDYFL, over 75%; under KLPGFPTQDDEV, 20 to 50%. For the molecule FLDDGNQML, the peptide exchange yield fell in the range of 50 to 75%.

In the case of GTIPLIESL, the peptide exchange yield lay within 10 to 20%.

As for YVDSEGIVRM, the peptide exchange yield is 10 to 20%. In the case of LLDAFSIKL, the peptide exchange yield was in the range of 50 to 75%. Next, VMFEYGMRL: over 75%. Next, ELDKIYETL: 10 to 20%; ILDEEKFNV: 50 to 75%; IIDDVMKEL: 20 to 50%. Under ALKDLVNLI stands over 75%; under SLDEVAVSL, over 75%; under QIDSIHLLL, 50 to 75%. Take SLGPIMLTKI: the peptide exchange yield lay in the range of 20 to 50%.

ILDELVKSL: the peptide exchange yield fell in the range of 50 to 75%.

With SIPDTIASV, the peptide exchange yield lay in the range of 50 to 75%. Next, LLDMSLVKL: 50 to 75%; GLDKVITVL: 50 to 75%; IIDDKPIGL: 50 to 75%. Next, ILGDWSIQV: over 75%. Under ILLDRLFSV stands over 75%; under FADELSHLL, 50 to 75%.

In the case of ILDNSPAFL, the peptide exchange yield was 50 to 75%.

With LLDSGAFHL, the peptide exchange yield lay in the range of 50 to 75%. Next, LLDTTQKYL: over 75%; NLDATVTAL: 50 to 75%; ILDGIIREL: 50 to 75%. Next, GLDTILQNL: over 75%; SIDDSDPIV: 10 to 20%. Next, TTLGGFAKV: 20 to 50%; TLLEVDAIVNA: over 75%. With GILSFLPVL, the peptide exchange yield lay within 50 to 75%.

In the case of GLLDVMYQV, the peptide exchange yield was over 75%. Under KLSVHVTAL stands over 75%. Next, AVDNILLKL: 50 to 75%; ILDYIHNGL: 50 to 75%. Under LLAKAVQNV stands 50 to 75%. Take LIDEAAQML: the peptide exchange yield is 50 to 75%.

On to SLAGLVLYV, for which the peptide exchange yield is over 75%.

Consider HTLPHEIVVNL, for which the peptide exchange yield lay in the range of 50 to 75%. SIIPYLLEA: the peptide exchange yield was over 75%. Next, GIDDLHISL: 50 to 75%; NLPNTNSILGV: 50 to 75%; LIDKIIEYL: 20 to 50%.

Turning to NLPSELPQL, the peptide exchange yield is 50 to 75%.

Regarding NLQEKVPEL, the peptide exchange yield lay in the range of 50 to 75%.

For NLDYAILKL, the peptide exchange yield lay within 10 to 20%. As for IIDPPLHGQLL, the peptide exchange yield is 20 to 50%. For the molecule FMYAGQLTL, the peptide exchange yield is over 75%. Next, NLDKLYHGL: 10 to 20%.
